Where two headings read alike, the source gives them in different places.
Key:
[1] = target: GRAB CRF1.0 sensor (human (GPCR scaffold cDNA)); experiment: other fluorescence titration
[2] = target: GRAB CRF1.0 sensor (human (GPCR scaffold cDNA)); experiment: other fluorescence titration; remark: listed apart in the source

EC50 [1] [nM] | EC50 [2] [nM] | Binder
18.6 | 33 | SEEPPISLDLTFHLLREVLEMARAEQLAQQAHSNRKLMEIIGK [corticotropin-releasing factor (CRF)]
 | 69 | DNPSLSIDLTFHLLRTLLELARTQSQRERAEQNRIIFDSVGK [urocortin 1 (UCN1)]

Reference: article PMC11205257
